Results: patent US20250163130A1, “LIGAND GATED ION CHANNELS AND METHODS OF USE” (Trames Bio, Inc., priority 2022, published 2025)

B1: CODA1055: α7-nAChR(Gly-cys) LBD: GlyRα1 IPD, SEQ ID NO: 33 comprising R101W, Y115E, Y210W mutations (protein)
chain: MRCSPGGVWLALAASLLHVSLQGEFQRKLYKELVKNYNPLERPVANDSQPLTVYFSLSLLQIMDVDEKNQVLTTNIWLQMSWTDHYLQWNVSEYPGVKTVWFPDGQIWKPDILLENSADERFDATFHTNVLVNSSGHCQYLPPGIFKSSCPMDLKNFPMDVQTCKLKFGSWSYGGWSLDLQMQEADISGYIPNGEWDLVGIPGKRSERFWECCKEPYPDVTFTVTMRRRMGYYLIQMYIPSLLIVILSWISFWINMDAAPARVGLGITTVLTMTTQSSGSRASLPKVSYVKAIDIWMAVCLLFVFSALLEYAAVNFVSRQHKELLRFRRKRRHHKSPMLNLFQEDEAGEGRFNFSAYGMGPACLQAKDGISVKGANNSNTTNPPPAPSKSPEEMRKLFIQRAKKIDKISRIGFPMAFLIFNMFYWIIYKIVRREDVHNQ
modifications: synthetic sequence of chimeric LGIC
B2: CODA1316: α7-nAChR(Gly-cys) LBD: GlyRα2 IPD, SEQ ID NO: 65 comprising R101W, Y115E, Y210W, T225I mutations (protein)
chain: MRCSPGGVWLALAASLLHVSLQGEFQRKLYKELVKNYNPLERPVANDSQPLTVYFSLSLLQIMDVDEKNQVLTTNIWLQMSWTDHYLQWNVSEYPGVKTVWFPDGQIWKPDILLENSADERFDATFHTNVLVNSSGHCQYLPPGIFKSSCPMDLKNFPMDVQTCKLKFGSWSYGGWSLDLQMQEADISGYIPNGEWDLVGIPGKRSERFWECCKEPYPDVTFTVIMRRRMGYYLIQMYIPSLLIVILSWVSFWINMDAAPARVALGITTVLTMTTQSSGSRASLPKVSYVKAIDIWMAVCLLFVFAALLEYAAVNFVSRQHKEFLRLRRRQKRQNKEEDVTRESRFNFSGYGMGHCLQVKDGTAVKATPANPLPQPPKDGDAIKKKFVDRAKRIDTISRAAFPLAFLIFNIFYWITYKIIRHEDVHKK
modifications: CHRNA7 (Cys-loop)/GLRA2

Columns and labels:
[1] = tested on: rat model of neuropathic pain; assay: Spared nerve injury (SNI) rat model of neuropathic pain, mechanical withdrawal threshold; format: in vivo; details: SNI rats injected with AAV.hSYN encoding engineered receptor; repeat IP injection on the third day
Method: The engineered receptors disclosed herein are assessed for their ability to provide analgesia in a rat model of neuropathic pain following administration of a small molecule ligand. AAV expression cassettes containing a human synapsin-1 (hSYN) promoter linked to polynucleotides encoding either a wild type α7-nAChR, or any one of the engineered chimeric receptors disclosed herein are constructed using standard molecular biology techniques.
Behavioral experiments and pain models: To produce mechanical hypersensitivity in a model that mimics a neuropathic pain condition, the spared nerve injury (SNI) model (a validated model of mechanical allodynia) is used (Shields et al., 2003, The Journal of Pain, 4, 465-470). This model is produced by the sectioning of the common peroneal and the sural nerves and isolating the tibial branch. Mechanical withdrawal threshold is assessed by placing rats on an elevated wire-mesh grid and stimulating the plantar surface of the hind paw with von Frey filaments.
Effects of administration: This SNI model is produced by the sectioning of the common peroneal and the sural nerves and isolating the tibial branch of the rat. […] The duration that the rat spends on the rotarod is recorded, with a cut-off at 300 sec. […]

CODA1237 = target: T1, CODA1237 (Homo sapiens, UniProt P36544, F159M/H163T/I152M/R155K/V154L/W156N/Y151P); assay: Anion reporter (YFP quench) plate assay, ligand response of cells expressing CODA1237 compared with CODA71; format: cell-based; details: FIG. 1, various ligand doses
T1 construct: expressed in transfected cells; host or cells: Lenti-X 293T (LX293T, Clontech) stably expressing mutant YFP (H148Q/I152L) reporter
T1 sequence (P36544 with tags, fused parts or gaps Y151P/I152M/V154L/R155K/W156N/F159M/H163T): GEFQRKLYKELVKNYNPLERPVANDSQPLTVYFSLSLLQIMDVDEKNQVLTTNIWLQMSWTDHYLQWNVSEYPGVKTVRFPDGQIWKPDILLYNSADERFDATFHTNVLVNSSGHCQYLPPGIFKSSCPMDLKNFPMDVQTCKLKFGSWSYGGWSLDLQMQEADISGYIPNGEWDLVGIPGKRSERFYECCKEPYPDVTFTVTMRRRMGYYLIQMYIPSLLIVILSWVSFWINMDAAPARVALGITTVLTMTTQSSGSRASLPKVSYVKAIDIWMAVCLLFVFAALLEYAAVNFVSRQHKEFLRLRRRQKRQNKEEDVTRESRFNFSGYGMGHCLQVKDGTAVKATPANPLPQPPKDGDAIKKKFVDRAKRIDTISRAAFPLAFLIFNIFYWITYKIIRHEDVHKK

HEK cells [2] = assay: Peak current measurement on IonFlux in HEK cells; format: cell-based; details: held at −60 mV
Method: HEK 293 cells were routinely subcultured in DMEM with 10% fetal bovine serum (ThermoFisher Scientific). Cells were plated in 15 cm dishes 24 hours prior to transfection with Fugene 6 (Promega, E2691) and plasmid DNA (total of 20 μg DNA). 24 hours post transfection, cells were lifted with Accutase (Sigma, A6964) then resuspended in serum free media (CHO—S-SFM II, ThermoFisher Scientific 12052 with 25 mM HEPES, ThermoFisher Scientific, 15630080) to rest for 30-90 min before being loaded onto IonFlux (Fluxion Biosciences) for experiments. Recordings were made in extracellular solution (ECS) containing (in mM): 140 sodium chloride (S7653), 4 potassium chloride (P9333), 1 magnesium chloride (M2670), 2 calcium chloride (C3881), 10 HEPES (54457), and 10 D-(+)-glucose (G7528) (pH=7.3 with sodium hydroxide, osmolarity=305-315 mOsm). Intracellular solution (ICS) contains (in mM): 140 cesium chloride (289329), 5 potassium fluoride (60238), 2 Calcium chloride (P9333), 2 magnesium chloride (M2670), 10 HEPES (54457), and 10 EGTA (3777) (pH=7.2 with cesium hydroxide, osmolarity=290-295 mOsm).
Drug-induced currents were recorded in ensemble mode (20 cells are patched per recording channel). Cells were held at −60 mV and current across the membrane was recorded at 1 kHz sampling rate. Drugs tested include acetycholine chloride (A6625) and other synthetic compounds. […]

HEK cells [3] = assay: TC-5619 / acetylcholine dose response and peak current of engineered receptors in HEK cells (FIGS. 5C-5F); format: cell-based; details: for Response to TC-5619 (dose response), compared with CODA71: FIGS. 5C-5E
HEK cells [4] = assay: Peak current measurement by manual patch clamp in HEK cells; format: cell-based; details: held at −60 mV
Method: Cell culture: HEK 293 cells were routinely subcultured in DMEM with 10% fetal bovine serum (ThermoFisher Scientific). Cells were plated in six-well dishes 24 hours prior to transfection with Fugene 6 (Promega, E2691) and plasmid DNA (total of 1 μg DNA). 24 hours post transfection, cells were replated onto 10 mm PDL and collagen coated coverslips, before being used for patch clamp experiments 24-48 hours later. For dorsal root ganglion neuron experiments, adult rat lumbar ganglia were harvested and dissociated according to standard protocols, cultured on glass coverslips coated with poly-L-lysine and mouse laminin, transduced on DIV1 with ires-GFP-containing lentiviral or AAV6 vectors, and processed for immunocytochemistry on DIV7. For hippocampal neuron experiments, hippocampi were harvested from embryonic day 18 rat pups or postnatal day 0 mouse pups and dissociated according to standard protocols. […]
Whole-cell patch clamp recording protocol: Cells plated on coverslips were visualized at 10× and 40× on an inverted fluorescence microscope (Olympus). […] Traces were either analyzed in Clampfit (Molecular Devices) or using custom Python code. […]
Dose-response experiments: Drug-induced currents were recorded in voltage clamp mode. […]

| Molecule | Mechanical withdrawal thresholds (up-down method) after IP injection of ligand [1] | Responsiveness (percent quench of YFP fluorescence) of cells expressing CODA1237 compared with cells expressing CODA71 (CODA1237) | Peak Current on IonFlux in HEK Cells (HEK cells [2]) | Response to acetylcholine (dose response), compared with CODA71 (HEK cells [3]; FIGS. 5C-5D) | Response to TC-5619 (dose response), compared with CODA71 (HEK cells [3]) | Peak Current on Manual Patch Clamp in HEK cells (HEK cells [4]) | Peak current when activated by TC-5619, compared with CODA1055 (HEK cells [3]; FIG. 5F) |
| --- | --- | --- | --- | --- | --- | --- | --- |
| c1cnc2c(c1)C[C@@]1(CN3CCC1CC3)O2 [AZD-0328] | recovery to non-injury baseline thresholds | more responsive |  |  |  |  |  |
| B1 |  |  | −5074.3 picoamps (pA) | reduced response | increased response | −2176.6 picoamps (pA) |  |
| B2 |  |  | −5520.5 picoamps (pA) |  | increased response | −2779 picoamps (pA) | increased peak current |
